Here are results for one molecule from patent publication US20230227577A1 (MYTHIC THERAPEUTICS, published 2023).

Test [1] addresses T1, DLL3 target antigen coated on Octet SA tips (binning experiment) (Homo sapiens (Human), UniProt Q9NYJ7 27-492, Probably biotinylated for capture on streptavidin (SA) tips. The site is not stated.).
T1 sequence: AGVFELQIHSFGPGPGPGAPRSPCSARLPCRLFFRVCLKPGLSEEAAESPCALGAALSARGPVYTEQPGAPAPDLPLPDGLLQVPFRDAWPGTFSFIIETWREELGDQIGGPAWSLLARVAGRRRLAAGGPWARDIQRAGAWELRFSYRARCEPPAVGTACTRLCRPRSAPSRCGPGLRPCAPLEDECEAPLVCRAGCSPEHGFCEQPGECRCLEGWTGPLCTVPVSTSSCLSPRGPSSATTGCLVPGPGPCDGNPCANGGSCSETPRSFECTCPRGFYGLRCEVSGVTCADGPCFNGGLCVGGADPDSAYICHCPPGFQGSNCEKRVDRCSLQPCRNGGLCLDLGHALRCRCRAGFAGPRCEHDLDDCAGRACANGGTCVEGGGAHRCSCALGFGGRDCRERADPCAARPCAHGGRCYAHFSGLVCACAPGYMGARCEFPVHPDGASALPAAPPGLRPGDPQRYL
The test is described as follows: Octet binning on DLL3-coated SA tips; competitor: 3HCE56. The procedure:
(§1) Antibody binning experiments were carried out for 5 anti-DLL3 VHHs and an anti-human DLL3 BiTE (SEQ ID NO: 756). The target antigen was coated on a series of Octet SA tips. Each series of tips was first soaked in a periplasmic extract containing one specific VHH. After the response signals reached saturation, the tips were transferred to a mix of PEs containing again the first VHH (at the same concentration) plus a different VHH (termed secondary VHH) for each tip of the series. Secondary VHH that still bind the target antigen in the presence of the first VHH will show an increased response, as compared to the binding response of the first VHH alone. This was repeated for each VHH as primary VHH until all VHH were tested against each other in both directions (as primary and as secondary binder). From the response data, the bins were deduced for each VHH. 2HCE117 and 3HCE4 show competition with the human DLL3 BiTEs, whereas 3HCE56 and 3HCE87 show a partial competition.
(BLI is a label-free optical method that tracks binding on a fibre tip over time.)

Test [2] deals with T1, DLL3 target antigen coated on Octet SA …. The test is described as follows: Octet binning on DLL3-coated SA tips; competitor: 3HCE87. The procedure:
as §1

Another test concerns the target T2, mouse DLL3 protein (mouse, UniProt O88516 33-490, limits assumed).
T2 construct: also called murine DLL3
T2 sequence (looked up): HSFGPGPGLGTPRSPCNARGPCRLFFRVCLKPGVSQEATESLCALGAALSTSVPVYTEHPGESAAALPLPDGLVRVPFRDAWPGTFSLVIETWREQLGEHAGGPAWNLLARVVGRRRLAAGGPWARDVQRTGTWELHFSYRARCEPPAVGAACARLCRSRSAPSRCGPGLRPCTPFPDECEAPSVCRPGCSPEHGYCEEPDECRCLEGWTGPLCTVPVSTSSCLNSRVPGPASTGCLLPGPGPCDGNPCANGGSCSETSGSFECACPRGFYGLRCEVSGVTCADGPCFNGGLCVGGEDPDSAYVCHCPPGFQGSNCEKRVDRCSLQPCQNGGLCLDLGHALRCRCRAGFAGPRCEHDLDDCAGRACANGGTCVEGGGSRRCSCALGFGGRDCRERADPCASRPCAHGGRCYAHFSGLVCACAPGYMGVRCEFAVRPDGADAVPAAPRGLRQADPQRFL
Put plainly: Octet (DLL3 on AR2G tips), ELISA and FACS; values only in FIG. 3.

For test [3], the target named is T3, recombinant human DLL3 protein (human, UniProt Q9NYJ7 27-492, limits assumed).
T3 construct: also called rhu DLL3; human biotinylated DLL3
T3 sequence (looked up): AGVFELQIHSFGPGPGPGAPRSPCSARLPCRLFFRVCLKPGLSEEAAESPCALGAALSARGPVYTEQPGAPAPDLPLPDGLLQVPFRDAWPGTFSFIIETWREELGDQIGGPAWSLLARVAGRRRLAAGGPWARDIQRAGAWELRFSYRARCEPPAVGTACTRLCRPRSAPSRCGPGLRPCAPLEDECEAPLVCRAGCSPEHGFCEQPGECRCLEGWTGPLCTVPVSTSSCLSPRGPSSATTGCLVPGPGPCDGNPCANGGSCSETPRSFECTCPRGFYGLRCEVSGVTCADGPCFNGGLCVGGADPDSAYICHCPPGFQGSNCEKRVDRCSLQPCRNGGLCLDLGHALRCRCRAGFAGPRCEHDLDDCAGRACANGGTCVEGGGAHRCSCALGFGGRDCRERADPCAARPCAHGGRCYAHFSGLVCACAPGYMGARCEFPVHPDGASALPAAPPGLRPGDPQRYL
Put plainly: Fortebio Octet Red, DLL3 immobilised on tips, dilution series of the VHH, 1:1 binding model; KD error 1.39E-11; Full R2 0.9994. As to the method: Additional experiments were carried out to further characterize the binding properties of the anti-DLL3 constructs. Binding properties tested include dissociation constant (KD), off-rate (koff), binding to DLL3 protein by ELISA and binding to CHO cells expressing human, cyno or mouse DLL3. To obtain off-rate (koff), human biotinylated DLL3 was immobilized on Octet SA tips, and cynomolgus or mouse DLL3 was immobilized on Octet AR2G tips. For each DLL3 protein, the binding to a dilution series of each anti-DLL3 construct was measured using Fortebio Octet Red. The dissociation constant (KD), off-rate (koff) and other kinetic parameters for each anti-DLL3 construct were calculated using a 1:1 binding model. In addition, binding of these anti-DLL3 constructs to CHO cells expressing human, cyno or mouse DLL3 protein was analyzed using flow cytometry (FACS).

Test [4] deals with T1, DLL3 target antigen coated on Octet SA …. The test is described as follows: Octet binning on DLL3-coated SA tips; competitor: 2HCE117. As to the method: as §1
For test [5] the target is unchanged. Put plainly: Octet binning on DLL3-coated SA tips; competitor: 2HCE27. The procedure:
as §1

Test [6] addresses T3, recombinant human DLL3 protein. Put plainly: SPR, control: individual binding construct. As to the method:
Surface Plasmon Resonance (SPR) was used to assess the binding kinetics and binding affinity. Kinetic rate coefficients were recovered from binding analysis experiments performed with a Biacore 3000 biosensor. Concentrations of the anti-DLL3/anti-CD3/anti-HSA trispecific binding construct ranging from 1.23 nM to 300 nM were run against the SPR sensorgram surfaces immobilized with recombinant human CD3 (rhu CD3) or recombinant HSA (rHSA). Concentrations of recombinant human DLL3 (rhu DLL3) ranging from 1.23 nM to 100 nM were run against the SPR sensorgram surface immobilized with the anti-DLL3/anti-CD3/anti-HSA trispecific binding construct. The association and dissociation phase data were globally fit to a 1:1 model to determine the association rate coefficient (kₒₙ), dissociation rate coefficient (koff), the Rmax value, and the dissociation constant (KD). Results were reported as the global fits to 1:1 model±standard error. The control groups were the three corresponding individual binding constructs. All three antigen binding domains in the trispecific binding construct retain binding to the corresponding antigen.
For orientation: Surface plasmon resonance follows binding to a sensor surface in real time, without labels.

B1: 2HCE27 anti-DLL3 VHH (VHH)
VHH: QVQLQESGGGLVQAGGSLRLSCAASGRTFRSYAMGWFRQAPGKEREFIAVIIMSDGSTSYADSVKGRFTISRDNAKNTLYLQMNSLKPEDTAVYYCAARRDYFTGVYDYWGQGTQVTVSS
notes: In the binning assay it was used as a periplasmic extract; also called anti-DLL3 (2HCE27)
One may read the Kd as a measure of binding affinity in units of concentration. As usually defined, the koff is the first-order rate constant of dissociation. For orientation: kon means the second-order rate constant of association. On to B1, for which the “binning response (unit not given)” value was 6500 in test [1], 87.5 in test [2], 19900 in test [4] and 0 in test [5]. Further, in the test with mouse DLL3 protein, the binding result is recorded as “binds”. Besides, the Kd in test [3] and in test [6] was 7.89 nM in each case. Further, in test [6], the koff came to 0.00064 s⁻¹. The kon in test [6] came to 80000 M⁻¹ s⁻¹.
